Experiments:
Assay in all cases: ITC
MepR WT = target: T1, MepR WT (Staphylococcus aureus, UniProt Q5Y812 1-139)
T1 sequence: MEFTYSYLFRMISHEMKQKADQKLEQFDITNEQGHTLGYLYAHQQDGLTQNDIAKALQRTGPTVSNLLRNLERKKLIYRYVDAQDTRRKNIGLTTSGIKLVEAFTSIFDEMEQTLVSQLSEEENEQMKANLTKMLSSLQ

MepR(Q18A) = target: T2, MepR(Q18A) (Staphylococcus aureus, UniProt Q5Y812 1-139, Q18A)
T2 sequence: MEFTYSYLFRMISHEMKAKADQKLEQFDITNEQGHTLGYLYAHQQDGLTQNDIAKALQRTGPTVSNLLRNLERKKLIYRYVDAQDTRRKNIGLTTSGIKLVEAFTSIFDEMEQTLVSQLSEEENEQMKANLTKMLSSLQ

MepR(F27L/F104A) = target: T3, MepR(F27L/F104A) (Staphylococcus aureus, UniProt Q5Y812 1-139, F27L;F104A)
T3 sequence: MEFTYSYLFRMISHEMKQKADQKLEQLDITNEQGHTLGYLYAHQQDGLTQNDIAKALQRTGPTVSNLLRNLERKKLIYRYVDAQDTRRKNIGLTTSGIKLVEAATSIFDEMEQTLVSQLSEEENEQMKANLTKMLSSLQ

MepR(A103S) = target: T4, MepR(A103S) (Staphylococcus aureus, UniProt Q5Y812 1-139, A103S)
T4 sequence: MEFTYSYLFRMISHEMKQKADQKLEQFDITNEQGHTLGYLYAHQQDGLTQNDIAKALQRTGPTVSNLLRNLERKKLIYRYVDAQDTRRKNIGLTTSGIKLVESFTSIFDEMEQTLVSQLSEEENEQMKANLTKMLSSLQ

B1: mepR operator, palindromic 26-mer (dsDNA)
DNA 1: TATTTAGTTAGATATCTAACTAAATA
DNA 2: TATTTAGTTAGATATCTAACTAAATA
- Kd (MepR WT): 36.6 nM
- Kd (MepR(Q18A)): 34.1 nM
- Kd (MepR(F27L/F104A)): 32.3 nM
- Kd (MepR(A103S)): 42.6 nM

Source: PMC3760248
